B1: 2HCD78 (VHH)
VHH: QVQLQESGGGLVQPGGSLRLSCAASGRTFSMGWFRQAPGKEREFVAAITYSGGSPYYASSVRGRFTISRDNAKNTVYLQMNSLKPEDTAVYYCAANPTYGSDWNAENWGQGTQVTVSS
notes: Whole entry = VHH-AAA-HA-His6 (pMECS construct)
B2: R3MCD137 (VHH)
VHH: QVQLQESGGGSVQAGGSLRLSCAASGSTFSIKAMGWYRQAPGKQRELVAAFISGRGSTKYADSVKGRFAISRDNAKNTMYLQMDSLEPEDTAVYYCYIVLPTGGGSAMDYWGEGTQVTVSS
notes: as for B1
B3: R3MCD22 (VHH)
VHH: QVQLQESGGGVVQAGGSLRLSCAASGSTFSIKAMGWYRQAPGKQRDLVAGFISGRGSAKYADSVKGRFAISRDNAKNTMYLQMDSLKPEDTAVYYCYIVLTTGGGSAMDYWGQGTQVTVSS
notes: as for B1

What was measured:
human CD20 = target: T1, human CD20 (human, UniProt P11836 1-297); experiment: FACS, 5 ug/ml VHH on CHO-K1 cells stably expressing human CD20, FITC anti-his detection
T1 construct: The forward primer starts at codon 2; also called hCD20; CHO-K1-hCD20
T1 sequence: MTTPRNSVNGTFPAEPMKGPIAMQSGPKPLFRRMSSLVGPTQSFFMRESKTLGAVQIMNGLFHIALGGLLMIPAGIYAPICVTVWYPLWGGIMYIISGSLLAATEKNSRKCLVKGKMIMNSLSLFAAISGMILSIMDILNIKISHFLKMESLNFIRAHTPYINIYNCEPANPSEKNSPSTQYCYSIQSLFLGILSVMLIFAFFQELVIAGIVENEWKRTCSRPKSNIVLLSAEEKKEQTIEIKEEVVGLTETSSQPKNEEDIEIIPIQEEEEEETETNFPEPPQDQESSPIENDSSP
Procedure: (§1) To determine the binding activities of the VHHs specific for human or mouse CD20, FACS analysis was carried out. Specifically, CHO-K1 cells and CHO-K1 cells stably expressing human or mouse CD20 were incubated with 5 μg/ml of the VHHs produced in accordance with the application. A monoclonal FITC labelled anti-his antibody (Genscript #A01620) was applied as secondary stain. FACS analysis was done on a FacsCalibur flow cytometer (Becton Dickinson).

mouse CD20 = target: T2, mouse CD20 (mouse, UniProt P19437 1-291); experiment: FACS, 5 ug/ml VHH on CHO-K1 cells stably expressing mouse CD20, FITC anti-his detection
T2 construct: whole, on cells; also called mCD20; CHO-K1-mCD20
T2 sequence (looked up): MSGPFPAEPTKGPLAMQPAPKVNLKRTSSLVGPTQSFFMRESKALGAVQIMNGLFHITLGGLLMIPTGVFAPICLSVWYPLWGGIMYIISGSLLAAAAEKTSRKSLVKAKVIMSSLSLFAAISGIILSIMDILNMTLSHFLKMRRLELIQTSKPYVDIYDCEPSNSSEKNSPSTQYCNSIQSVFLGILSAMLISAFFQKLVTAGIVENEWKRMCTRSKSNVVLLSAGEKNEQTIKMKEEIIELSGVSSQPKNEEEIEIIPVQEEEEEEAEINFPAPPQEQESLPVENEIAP
Procedure: as §1

Binder | binding result (human CD20) | binding result (mouse CD20)
B1 | binds | –
B2 | – | binds
B3 | – | binds
